From patent publication US20210088528A1 (published 2021) come the findings set out here.

Assay [1] has as its target T1, human PD-L1-His6 (human, UniProt Q9NZQ7 19-238).
T1 construct: extracellular domain; also called hPD-L1; B7-H1; not shown: His6 tag (by the name PD-L1-His6)
Description: BLI (Octet RED96), PD-1-Fc on AHC biosensor, PD-L1-His6 in solution. The protocol:
(§1) BLI was performed on an Octet RED96® system at 30° C. in a buffer of 150 mM NaCl, 20 mM HEPES:NaOH pH 7.4, 0.1% BSA and 0.05% Tween 20. The human PD-1-Fc proteins were loaded onto anti-human IgG Fc capture (AHC) biosensors, associated in defined concentrations of human PD-L2-His6 or PD-L1-His6 proteins, and then dissociated in buffer.
(§2) Using bio-layer interferometry (BLI), the binding of PD-L2 to wild-type PD-1 and the variants was compared (data not shown). The binding of sensor-loaded PD-1 and the loop variants to 190 nM PD-L2 and 1.1 μM PD-L1 was measured using biolayer interferometry. Corresponding PD-1-Fc proteins were loaded on anti-human IgG Fc capture (AHC) biosensors. Association was monitored for 2 min and dissociation for 2 min. Fitting of binding curves was performed in Graphpad Prism 8 software using built-in equations of “Receptor binding—kinetics” models. Means and standard deviations were calculated from 3-4 independent experiments. […] Fitting of binding curves was performed in Graphpad Prism 8 using built-in equations of “Receptor binding—kinetics” models. Means and standard deviations were calculated from 3-4 independent experiments. […] Kinetic measurements of binding of the ligands by PD-1 with BLI also permitted the determination of association constants (kₒₙ).

For assay [2], the target named is T2, human PD-L2-His6 (human, UniProt Q9BQ51 20-220).
T2 construct: extracellular domain; also called hPD-L2; B7-DC; not shown: His6 tag (by the name PD-L2-His6)
T2 sequence (looked up): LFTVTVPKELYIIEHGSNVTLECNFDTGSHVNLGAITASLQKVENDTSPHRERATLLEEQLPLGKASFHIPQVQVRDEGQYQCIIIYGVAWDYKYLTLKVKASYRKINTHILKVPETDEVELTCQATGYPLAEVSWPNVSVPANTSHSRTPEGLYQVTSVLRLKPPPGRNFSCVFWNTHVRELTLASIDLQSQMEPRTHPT
In words: BLI, PD-1-Fc on AHC biosensor. The procedure:
as §1, §2
Background: In BLI a coated tip is dipped into the sample, and binding shifts an interference pattern.

Assay [3] has as its target T1, human PD-L1-His6. In words: BLI, PD-1-Fc on AHC biosensor. The procedure:
as §1, §2

The target in assay [4] is T2, human PD-L2-His6. Description: BLI (Octet RED96), PD-1-Fc on AHC biosensor, PD-L2-His6 in solution. The procedure:
as §1, §2

T1 sequence (Q9NZQ7 19-238): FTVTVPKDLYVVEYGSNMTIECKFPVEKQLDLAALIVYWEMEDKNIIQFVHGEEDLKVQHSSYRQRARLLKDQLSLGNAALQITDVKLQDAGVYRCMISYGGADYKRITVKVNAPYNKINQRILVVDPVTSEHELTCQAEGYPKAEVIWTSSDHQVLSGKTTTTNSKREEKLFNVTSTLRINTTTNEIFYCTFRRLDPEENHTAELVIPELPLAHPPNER

B1: human PD-1-Fc N74G T76P A132V (Fc fusion)
chain: PGWFLDSPDRPWNPPTFSPALLVVTEGDNATFTCSFSNTSESFVLNWYRMSPSGQPDKLAAFPEDRSQPGQDCRFRVTQLPNGRDFHMSVVRARRNDSGTYLCGAISLAPKVQIKESLRAELRVTERRAE
notes: also called PD-1 triple mutant; triple-mutant; not shown: Fc portion
With B1, in assay [1], the Kd (commonly a measure of binding affinity in units of concentration) stood at 72 nM; the off-rate (koff) (usually a measure of how fast the partners let go of each other) came to 0.036 s⁻¹; the kon – broadly, a measure of how fast the partners come together – turned out to be 520000 M⁻¹ s⁻¹. In assay [2], the “fold increase in binding affinity against wild-type PD-1” value was approximately 200 fold and the “fold increase of kon against wild-type PD-1” value amounted to 3 fold. For the same molecule, the “fold increase of kon against wild-type PD-1” value in assay [3] is 14 fold. In assay [4], this molecule registered a Kd of 2.6 nM, a koff of 0.0014 s⁻¹ and a kon of 580000 M⁻¹ s⁻¹.
